Assay results published in patent US20260242478A1 (published 2026).
Where no end group is shown, it is not given here.

Experiments:
[1] = biological target: Anti-CD28 Fab (SEQ ID NOs: 696, 697); experiment: phage binding ELISA, clonal phage on biotinylated anti-CD28 Fab captured on neutravidin plates;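 note: crude clonal phage supernatants added to wells pretreated with CD28 antigen or blocking buffer only, bound phage detected by HRP-linked anti-M13 antibody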
Target sequence in this assay (VH, as listed by the source, chain 1 of 2): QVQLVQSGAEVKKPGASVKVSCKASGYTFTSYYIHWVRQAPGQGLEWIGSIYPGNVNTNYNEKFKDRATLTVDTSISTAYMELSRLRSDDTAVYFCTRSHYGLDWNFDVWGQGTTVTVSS
Target sequence in this assay (VL, as listed by the source, chain 2 of 2): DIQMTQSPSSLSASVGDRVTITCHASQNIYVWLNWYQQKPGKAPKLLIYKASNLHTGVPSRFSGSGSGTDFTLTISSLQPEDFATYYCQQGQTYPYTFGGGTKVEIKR
Experimental: (§1) After panning, phage infected bacteria were plated out and colonies picked into 96 well blocks. Clonal phage was then amplified and separated from bacterial cells via centrifugation.
(§2) Clonal phage were harvested as crude supematants and screened via standard ELISAs. […] Prior to the addition of clonal phage, wells were incubated with blocking buffer and CD28 antigen or blocking buffer alone. Without washing or aspirating, clonal phage supematants were then added to the wells and incubated for a short time. Wells were then washed followed by detection of bound phage using a horse radish conjugated anti-M13 antibody. Clonal phage of interest were then sent for sequence analysis.

[2] = biological target: Anti-CD28 Fab (SEQ ID NOs: 696, 697); experiment: phage binding ELISA on captured anti-CD28 Fab, wells pre-incubated with CD28 antigen as competitor;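 note: crude clonal phage supernatants added to wells preloaded with CD28 antigen, bound phage read by HRP-conjugated anti-M13 antibody, control wells got blocking buffer alone without CD28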
Target sequence in this assay (VH, as listed by the source, chain 1 of 2): as the sequence (VH, as listed by the source, chain 1 of 2) above
Target sequence in this assay (VL, as listed by the source, chain 2 of 2): as the sequence (VL, as listed by the source, chain 2 of 2) above
Experimental: as §1, §2

[3] = biological target: T1, Anti-CD28 Fab (SEQ ID NOs: 696, 697); experiment: phage ELISA; biotinylated anti-CD28 Fab on neutravidin plate, clonal phage supernatant, anti-M13 HRP detection;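 for Anti-CD28 Fab signal (phage binding ELISA): crude supernatants of single phage clones picked after panning were screened for binding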;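 for Phage binding ELISA, Anti-CD28 Fab signal: before phage addition, wells were pretreated with either CD28 antigen in blocking buffer or only blocking buffer, and phage was added without an intervening wash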
T1 construct: Biotinylated and captured on neutravidin coated plates in the phage ELISA
T1 sequence (VH, as listed by the source, chain 1 of 2): as the sequence (VH, as listed by the source, chain 1 of 2) above
T1 sequence (VL, as listed by the source, chain 2 of 2): as the sequence (VL, as listed by the source, chain 2 of 2) above
Experimental: (§3) Clonal phage were harvested as crude supematants and screened via standard ELISAs. […] Prior to the addition of clonal phage, wells were incubated with blocking buffer and CD28 antigen or blocking buffer alone. Without washing or aspirating, clonal phage supematants were then added to the wells and incubated for a short time. Wells were then washed followed by detection of bound phage using a horse radish conjugated anti-M13 antibody.

[4] = biological target: T1, Anti-CD28 Fab (SEQ ID NOs: 696, 697); experiment: phage ELISA; biotinylated anti-CD28 Fab on neutravidin plate, wells pre-incubated with CD28 antigen as competitor, anti-M13 HRP detection
Experimental: as §3

[5] = biological target: T2, Anti-PSMA Fab (SEQ ID NOs: 19, 20); experiment: phage binding ELISA; biotinylated PSMA Fab on neutravidin plate, clonal phage supernatant, anti-M13 HRP detection;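 note: wells were preincubated with blocking buffer either containing PSMA antigen or without it before crude phage supernatant was added, briefly incubated, then washed prior to detection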
T2 construct: also called 006 PSMA Fab
Experimental: (§4) Clonal phage were harvested as crude supernatants and screened via standard ELISAs. […] Prior to the addition of clonal phage. wells were incubated with blocking buffer and PSMA antigen or blocking buffer alone. Without washing or aspirating, clonal phage supernatants were then added to the wells and incubated for a short time. Wells were then washed followed by detection of bound phage using a horse radish conjugated anti-M13 antibody.

[6] = biological target: T2, Anti-PSMA Fab (SEQ ID NOs: 19, 20); experiment: phage binding ELISA; biotinylated PSMA Fab on neutravidin plate pre-incubated with PSMA antigen (competitor), anti-M13 HRP detection;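 note: competition ELISA where clonal phage supernatants were added to wells preincubated with PSMA antigen or with blocking buffer only as control, bound phage read via HRP-coupled anti-M13 antibody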
Experimental: as §4

[7] = biological target: Anti-CD28 Fab (SEQ ID NOs: 696, 697); experiment: phage ELISA as above; wells pre-incubated with CD28 antigen as competitor
Target sequence in this assay (VH, as listed by the source, chain 1 of 2): as the sequence (VH, as listed by the source, chain 1 of 2) above
Target sequence in this assay (VL, as listed by the source, chain 2 of 2): as the sequence (VL, as listed by the source, chain 2 of 2) above
Experimental: as §1, §2

[8] = biological target: Anti-CD28 Fab (SEQ ID NOs: 696, 697); experiment: phage ELISA; biotinylated anti-CD28 Fab on neutravidin plate, clonal phage supernatant, anti-M13 HRP detection;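 for Anti-CD28 Fab signal (phage binding ELISA): crude supernatants of single phage clones picked after panning were screened for binding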;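 for Phage binding ELISA, Anti-CD28 Fab signal: before phage addition, wells were pretreated with either CD28 antigen in blocking buffer or only blocking buffer, and phage was added without an intervening wash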
Target sequence in this assay (VH, as listed by the source, chain 1 of 2): as the sequence (VH, as listed by the source, chain 1 of 2) above
Target sequence in this assay (VL, as listed by the source, chain 2 of 2): as the sequence (VL, as listed by the source, chain 2 of 2) above

B1: Phage-1315 (peptide)
peptide: YCAGHTTEYIVKCL
notes: Peptide-87 library clone, tested as clonal phage (peptide fused to pIII of the bacteriophage)
[1]
  Anti-CD28 Fab signal (phage binding ELISA): 0.5
[2]
  Anti-CD28 Fab signal in the presence of CD28 (phage binding ELISA): 0.05

B2: Phage-1319 (peptide)
peptide: YCAGHAQEYMRKCL
notes: as for B1
[1]
  Anti-CD28 Fab signal (phage binding ELISA): 0.49
[2]
  Anti-CD28 Fab signal in the presence of CD28 (phage binding ELISA): 0.07

B3: Phage-1318 (peptide)
peptide: YCEGHLGLYMKKCL
notes: as for B1
[1]
  Anti-CD28 Fab signal (phage binding ELISA): 0.49
[2]
  Anti-CD28 Fab signal in the presence of CD28 (phage binding ELISA): 0.06

## TCAAGANWHWPWCF [Phage-1561]
[3]
  Phage binding ELISA, Anti-CD28 Fab signal: 1.46
[4]
  Phage binding ELISA, Anti-CD28 Fab signal in the presence of CD28: 0.15

## TCEDGFHFSWPECF [Phage-1570]
[3]
  Phage binding ELISA, Anti-CD28 Fab signal: 1.44
[4]
  Phage binding ELISA, Anti-CD28 Fab signal in the presence of CD28: 0.07

## SCAAGATYVWPMCF [Phage-1574]
[3]
  Phage binding ELISA, Anti-CD28 Fab signal: 1.42
[4]
  Phage binding ELISA, Anti-CD28 Fab signal in the presence of CD28: 0.07

B4: Phage-1320 (peptide)
peptide: YCAGHIPQYLNKCL
notes: as for B1
[1]
  Anti-CD28 Fab signal (phage binding ELISA): 0.49
[2]
  Anti-CD28 Fab signal in the presence of CD28 (phage binding ELISA): 0.07

B5: Phage-1316 (peptide)
peptide: YCEGHVPQYMGKCL
notes: as for B1
[1]
  Anti-CD28 Fab signal (phage binding ELISA): 0.5
[2]
  Anti-CD28 Fab signal in the presence of CD28 (phage binding ELISA): 0.08

B6: Phage-1324 (peptide)
peptide: YCEGHMQWYMAKCL
notes: as for B1
[1]
  Anti-CD28 Fab signal (phage binding ELISA): 0.45
[2]
  Anti-CD28 Fab signal in the presence of CD28 (phage binding ELISA): 0.09

## AVKACIPEWMCIGF (peptide, not shown: large carriers, Clonal phage supernatant) [Phage-1793]
[5]
  Anti-PSMA Fab (SEQ ID NOs: 19, 20) signal: 2.44
[6]
  Anti-PSMA Fab signal in the presence of PSMA: 0.106

## TCAAGAHYSWPFCM [Phage-1575]
[3]
  Phage binding ELISA, Anti-CD28 Fab signal: 1.42
[4]
  Phage binding ELISA, Anti-CD28 Fab signal in the presence of CD28: 0.07

## IVPLCKPAWMCKLF (peptide, not shown: large carriers, Clonal phage supernatant) [Phage-1792]
[5]
  Anti-PSMA Fab (SEQ ID NOs: 19, 20) signal: 2.48
[6]
  Anti-PSMA Fab signal in the presence of PSMA: 0.221

B7: Phage-1790 (peptide, not shown: large carriers)
peptide: EPKWCVPRGLCNYD
notes: Clonal phage supernatant; also called Peptide-240
[5]
  Anti-PSMA Fab (SEQ ID NOs: 19, 20) signal: 1.14
[6]
  Anti-PSMA Fab signal in the presence of PSMA: 0.0587

## TAHHCKPAWMCTGF (peptide, not shown: large carriers, Clonal phage supernatant) [Phage-1796]
[5]
  Anti-PSMA Fab (SEQ ID NOs: 19, 20) signal: 2.42
[6]
  Anti-PSMA Fab signal in the presence of PSMA: 0.103

B8: Phage-1310 (peptide, not shown: large carriers)
peptide: YCEGHKKEYMLKCL
modifications: cysteine pairing not given here; also: fused to phage pIII protein, pIII and linker sequence not given here
notes: Tested as clonal phage supernatant
[7]
  Anti-CD28 Fab signal in the presence of CD28 (phage binding ELISA): 0.08
[8]
  Anti-CD28 Fab signal (phage binding ELISA): 0.56

## WCGVGMDWRWPECL [Phage-1569]
[3]
  Phage binding ELISA, Anti-CD28 Fab signal: 1.44
[4]
  Phage binding ELISA, Anti-CD28 Fab signal in the presence of CD28: 0.16

## YFVQCRPAWMCEGF (peptide, not shown: large carriers, Clonal phage supernatant) [Phage-1791]
[5]
  Anti-PSMA Fab (SEQ ID NOs: 19, 20) signal: 2.51
[6]
  Anti-PSMA Fab signal in the presence of PSMA: 0.339

## VEKVCKPVWMCVGF (peptide, not shown: large carriers, Clonal phage supernatant) [Phage-1798]
[5]
  Anti-PSMA Fab (SEQ ID NOs: 19, 20) signal: 2.41
[6]
  Anti-PSMA Fab signal in the presence of PSMA: 0.156

## FTNYCVPSWMCTGF (peptide, not shown: large carriers, Clonal phage supernatant) [Phage-1797]
[5]
  Anti-PSMA Fab (SEQ ID NOs: 19, 20) signal: 2.42
[6]
  Anti-PSMA Fab signal in the presence of PSMA: 0.129

## TCSAGATYTWPSCF [Phage-1572]
[3]
  Phage binding ELISA, Anti-CD28 Fab signal: 1.42
[4]
  Phage binding ELISA, Anti-CD28 Fab signal in the presence of CD28: 0.06

B9: Phage-1321 (peptide)
peptide: YCDGHSTEYMWKCL
notes: as for B1
[1]
  Anti-CD28 Fab signal (phage binding ELISA): 0.49
[2]
  Anti-CD28 Fab signal in the presence of CD28 (phage binding ELISA): 0.06

B10: Phage-1314 (peptide)
peptide: YCEGHLDEYLQKCM
notes: as for B1
[1]
  Anti-CD28 Fab signal (phage binding ELISA): 0.51
[2]
  Anti-CD28 Fab signal in the presence of CD28 (phage binding ELISA): 0.08

B11: Phage-1311 (peptide, not shown: large carriers)
peptide: YCEGHVELYRQKCL
modifications: cysteine pairing not given here; also: fused to phage pIII protein, pIII and linker sequence not given here
notes: as for B8
[7]
  Anti-CD28 Fab signal in the presence of CD28 (phage binding ELISA): 0.06
[8]
  Anti-CD28 Fab signal (phage binding ELISA): 0.56

## LCAAGATYPWPICL [Phage-1562]
[3]
  Phage binding ELISA, Anti-CD28 Fab signal: 1.46
[4]
  Phage binding ELISA, Anti-CD28 Fab signal in the presence of CD28: 0.08

B12: Phage-1323 (peptide)
peptide: YCAGHDAEYMQKCL
notes: as for B1
[1]
  Anti-CD28 Fab signal (phage binding ELISA): 0.46
[2]
  Anti-CD28 Fab signal in the presence of CD28 (phage binding ELISA): 0.06

## SCSAGALWKWPVCF [Phage-1563]
[3]
  Phage binding ELISA, Anti-CD28 Fab signal: 1.45
[4]
  Phage binding ELISA, Anti-CD28 Fab signal in the presence of CD28: 0.07

## WCDQFFHYKWPLCL [Phage-1573]
[3]
  Phage binding ELISA, Anti-CD28 Fab signal: 1.42
[4]
  Phage binding ELISA, Anti-CD28 Fab signal in the presence of CD28: 0.07

B13: Phage-1322 (peptide)
peptide: YCEGHIKDYMTKCL
notes: as for B1
[1]
  Anti-CD28 Fab signal (phage binding ELISA): 0.47
[2]
  Anti-CD28 Fab signal in the presence of CD28 (phage binding ELISA): 0.08

B14: Phage-1326 (peptide)
peptide: YCDGHDEQYLMKCL
notes: as for B1
[1]
  Anti-CD28 Fab signal (phage binding ELISA): 0.44
[2]
  Anti-CD28 Fab signal in the presence of CD28 (phage binding ELISA): 0.07

## TCSAGFSYKWPWCW [Phage-1564]
[3]
  Phage binding ELISA, Anti-CD28 Fab signal: 1.45
[4]
  Phage binding ELISA, Anti-CD28 Fab signal in the presence of CD28: 0.06

B15: Phage-1312 (peptide, not shown: large carriers)
peptide: YCDGHLETYMQKCL
modifications: cysteine pairing not given here; also: fused to phage pIII protein, pIII and linker sequence not given here
notes: as for B8
[7]
  Anti-CD28 Fab signal in the presence of CD28 (phage binding ELISA): 0.08
[8]
  Anti-CD28 Fab signal (phage binding ELISA): 0.53

B16: Phage-1317 (peptide)
peptide: YCDGHAAMYMSKCL
notes: as for B1
[1]
  Anti-CD28 Fab signal (phage binding ELISA): 0.5
[2]
  Anti-CD28 Fab signal in the presence of CD28 (phage binding ELISA): 0.07

## VQIQCRPAWMCLGF (peptide, not shown: large carriers, Clonal phage supernatant) [Phage-1794]
[5]
  Anti-PSMA Fab (SEQ ID NOs: 19, 20) signal: 2.44
[6]
  Anti-PSMA Fab signal in the presence of PSMA: 0.127

## SCSAGAMYQWPLCF [Phage-1565]
[3]
  Phage binding ELISA, Anti-CD28 Fab signal: 1.44
[4]
  Phage binding ELISA, Anti-CD28 Fab signal in the presence of CD28: 0.09

## TCSAGATYMWPACF [Phage-1567]
[3]
  Phage binding ELISA, Anti-CD28 Fab signal: 1.44
[4]
  Phage binding ELISA, Anti-CD28 Fab signal in the presence of CD28: 0.1

## TCSAGATYAWPACF [Phage-1568]
[3]
  Phage binding ELISA, Anti-CD28 Fab signal: 1.44
[4]
  Phage binding ELISA, Anti-CD28 Fab signal in the presence of CD28: 0.08

## AEVKCIPQWMCQGF (peptide, not shown: large carriers, Clonal phage supernatant) [Phage-1795]
[5]
  Anti-PSMA Fab (SEQ ID NOs: 19, 20) signal: 2.43
[6]
  Anti-PSMA Fab signal in the presence of PSMA: 0.0852

B17: Phage-1325 (peptide)
peptide: YCEGHAPVYMQKCL
notes: as for B1
[1]
  Anti-CD28 Fab signal (phage binding ELISA): 0.44
[2]
  Anti-CD28 Fab signal in the presence of CD28 (phage binding ELISA): 0.08
